According to patent US20230093211A1:

Assays:
Experiment in all cases: SPR (Biacore T200), p75NTR-Fc captured on Protein A, neurotrophin injected
NT-3 = molecular target: NT-3
NT-4 = molecular target: T1, NT-4
T1 sequence (P34130 81-210, species assumed, looked up): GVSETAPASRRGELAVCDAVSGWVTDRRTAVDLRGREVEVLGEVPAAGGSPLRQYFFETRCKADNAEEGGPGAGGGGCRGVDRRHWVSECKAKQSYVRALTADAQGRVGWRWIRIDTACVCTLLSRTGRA

NGF = molecular target: NGF
BDNF = molecular target: T2, BDNF
T2 sequence (P23560 19-247, species assumed, looked up): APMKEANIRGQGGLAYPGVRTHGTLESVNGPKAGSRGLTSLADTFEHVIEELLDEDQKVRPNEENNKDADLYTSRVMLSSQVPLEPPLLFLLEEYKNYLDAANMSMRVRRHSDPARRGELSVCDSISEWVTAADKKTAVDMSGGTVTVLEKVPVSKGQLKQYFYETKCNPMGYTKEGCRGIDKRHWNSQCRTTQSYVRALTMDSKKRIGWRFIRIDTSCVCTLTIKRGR

Chain of p75NTR-Fc (Fc fusion) (chain): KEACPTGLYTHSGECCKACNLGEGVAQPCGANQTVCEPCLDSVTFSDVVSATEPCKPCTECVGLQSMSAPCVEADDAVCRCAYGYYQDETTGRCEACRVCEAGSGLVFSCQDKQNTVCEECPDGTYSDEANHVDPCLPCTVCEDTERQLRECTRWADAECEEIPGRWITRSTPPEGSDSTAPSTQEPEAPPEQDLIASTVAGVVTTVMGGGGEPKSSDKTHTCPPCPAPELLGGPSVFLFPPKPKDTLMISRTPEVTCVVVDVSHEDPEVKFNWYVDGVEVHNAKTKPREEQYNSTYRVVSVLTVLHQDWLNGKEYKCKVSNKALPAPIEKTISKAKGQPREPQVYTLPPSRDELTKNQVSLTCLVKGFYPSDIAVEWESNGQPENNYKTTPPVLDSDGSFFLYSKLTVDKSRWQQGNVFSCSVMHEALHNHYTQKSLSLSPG
Chain of NGF (P01138 122-241): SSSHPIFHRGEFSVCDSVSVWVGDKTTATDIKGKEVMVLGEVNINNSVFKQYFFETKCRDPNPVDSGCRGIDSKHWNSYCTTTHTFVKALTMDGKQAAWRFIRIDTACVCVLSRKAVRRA

- Kd (NT-3): 0.0142 nM
- Kd (NT-4): 0.181 nM
- Kd (NGF): 0.554 nM
- Kd (BDNF): 0.0418 nM
Substance: p75NTR-Fc (Fc fusion)
